PMC8764033, “Single-molecule analysis of specificity and multivalency in binding of short linear substrate motifs to the APC/C” (Nature Communications, 2022)
“And” between values parts separate entries of the source, which are not always exact repeats. Equal values may be shown once.

Key:
Cdh1^WD40 = molecular target: T1, Cdh1^WD40 (Saccharomyces cerevisiae, UniProt P53197); test: SMOR assay (single-molecule off-rate, TIRF), yeast Cdh1^WD40; assay type: binding; conditions: for mean dwell time: representative of two independent experiments, ± SE, ligand ≤1 nM, buffer C + BSA
T1 construct: the WD40 domains of yeast Cdh1 (aa 241–550; pNH144); made in house; host or cells: Sf9 insect cells (baculovirus)
T1 sequence (P53197 241-550): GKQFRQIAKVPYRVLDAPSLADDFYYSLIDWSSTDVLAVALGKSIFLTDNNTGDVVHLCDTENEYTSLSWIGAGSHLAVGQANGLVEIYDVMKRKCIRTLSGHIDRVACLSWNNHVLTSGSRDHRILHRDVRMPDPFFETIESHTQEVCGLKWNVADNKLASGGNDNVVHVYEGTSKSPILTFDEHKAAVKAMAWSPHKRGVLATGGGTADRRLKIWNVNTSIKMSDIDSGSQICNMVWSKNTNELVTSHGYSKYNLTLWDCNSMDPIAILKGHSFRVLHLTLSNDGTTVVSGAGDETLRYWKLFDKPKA
Protocol: Activators were cloned into the pFastBac HT A vector, with an N-terminal 2xStrep-Tag II. For some experiments, we constructed vectors for expression of the WD40 domains of yeast Cdh1 (aa 241–550; pNH144), human Cdh1 (aa 165–484; pNH164), or human Cdc20 (aa 162–484; pNH188). For SMOR, a C-terminal GFP tag was added. Bacmid plasmids are listed in Supplementary Table 3. Plasmids were transformed into DH10Bac cells, and purified Bacmid was used to transfect Sf9 cells to generate P1 baculovirus, which was used to generate P2 virus. SF9 cells were infected with the P2 virus for 48 h. Flash-frozen pellets were lysed by sonication or high-pressure homogenization in lysis buffer B (50 mM Tris-HCl pH 8, 150 mM KCl, 0.5 mM EDTA, 1 mM DTT, 10% Glycerol, EDTA-free protease inhibitor tablet, 1 µg ml^−1 pepstatin A). After the lysate was applied to the StrepTrap column, the column was washed with wash buffer B (lysis buffer B lacking protease inhibitors) and eluted in the same buffer containing 2.5 mM desthiobiotin.
(§1) For all SMOR experiments, 24 × 50 mm high precision glass coverslips (Bioscience Tools) and drilled microscope slides were passivated with a combination of PEG and PEG-biotin (coverslips) or PEG only (slides) following a previously published protocol for SiMPull[31]. Reaction chambers (~20 µl) were created using double-sided tape and epoxy. Protein was immobilized on the surface with 0.2 mg ml^−1 NeutrAvidin in buffer C (20 mM HEPES pH 7.5, 150 mM KCl, 10% glycerol, 0.05% Tween-20, 1 mM DTT). Excess NeutrAvidin was washed away and incubated with either biotin-conjugated mouse monoclonal anti-Strep-Tag II antibody (LSBio, Cat. No. LS-C203632-100) or biotin-conjugated rabbit polyclonal anti-GFP antibody (Rockland, Cat. No. 600-406-215) diluted in buffer C + BSA (0.1 mg ml^−1; Molecular Biology Grade Bovine Serum Albumin). Activator WD40 and activated APC/C (typically 50 µl containing about 65 ng APC/C, of which only a small fraction is immobilized on the glass) were immobilized using anti-Strep-Tag II, while APC/C alone was immobilized with anti-GFP. SMOR results were similar when performed in the buffer (wash buffer B) used in polarization anisotropy.
To capture dynamic protein–protein interactions, dye-labeled substrate diluted in buffer C + BSA was added to the chamber containing immobilized proteins. Interactions were imaged by TIRF microscopy as described below. For optimal signal-to-noise ratio, peptide concentration was no greater than 1 nM. Protein substrates included Hsl1 aa 667–872 and a C-terminal HaloTag followed by a TAP tag, and were produced by translation in rabbit reticulocyte lysates using TnT Quick Coupled Transcription/Translation System (Promega) (see Supplementary Table 5 for plasmids). Protein was purified with magnetic IgG beads and labeled on the bead with JF549 or JF646 dye so that unbound dye could be washed away. Purified dye-labeled protein was then cleaved from the beads using TEV protease. Before adding substrate to the reaction chamber, oxygen scavenging reagents were added (10 nM protocatechuate-3,4-dioxygenase, 2.5 mM protocatechuic acid, and 1 mM Trolox)[41]. A detailed description of the SMOR analysis pipeline is found in Supplementary Note 1.
(§2) Microscopy was performed with a Nikon Eclipse TE2000-E with Perfect Focus with a 100 × 1.49na oil, Apo TIRF DIC N2, 0.13-0.2, WD0.12 objective. Movies were recorded using the Andor iXon DU-897E-CSO. […]

APC/C^Apc10-4A, Cdh1 = test: SMOR assay, yeast APC/C^Apc10-4A, Cdh1; assay type: binding, Saccharomyces cerevisiae
Protocol: Yeast strains were derivatives of W303 and are listed in Supplementary Table 2. For APC/C purification, we used a strain carrying Cdc16-TAP and lacking Cdh1 (DOM1126); in most experiments, the strain also carried Apc1-GFP (NHY13). Yeast were grown in YPD media to OD600 = 0.8, collected and flash-frozen. Cells were lysed by bead beating in lysis buffer A (50 mM HEPES pH 7.5, 150 mM KCl, 10% glycerol, 0.2% Triton X-100, 63 µM B-glycerophosphate, 48 µM sodium fluoride, 1 µg ml^−1 pepstatin A, 1 µg ml^−1 leupeptin, 1 µg ml^−1 aprotinin, 1 mM PMSF, 1 mM DTT, 0.5 mM EDTA) and APC/C was purified using magnetic IgG beads. The beads were washed using wash buffer A (20 mM HEPES pH 7.5, 150 mM KCl, 10% Glycerol, 0.05% Triton X-100). After incubation with purified Cdh1 or Cdc20, the APC/C was cleaved off the beads with TEV protease in wash buffer A with 0.05% Tween-20 (for single-molecule studies) or 0.05% Triton X-100 (for ensemble assays such as ubiquitylation) and used immediately.
as §1
To capture dynamic protein–protein interactions, dye-labeled substrate diluted in buffer C + BSA was added to the chamber containing immobilized proteins. Interactions were imaged by TIRF microscopy as described below. For optimal signal-to-noise ratio, peptide concentration was no greater than 1 nM. […]
as §2

[1] = Supplementary Table 1, replicate 1 (movie listed first)
[2] = Supplementary Table 1, replicate 2 (movie listed second)

Sequence of APC/C^Apc10-4A, Cdh1 (P53197 whole entry): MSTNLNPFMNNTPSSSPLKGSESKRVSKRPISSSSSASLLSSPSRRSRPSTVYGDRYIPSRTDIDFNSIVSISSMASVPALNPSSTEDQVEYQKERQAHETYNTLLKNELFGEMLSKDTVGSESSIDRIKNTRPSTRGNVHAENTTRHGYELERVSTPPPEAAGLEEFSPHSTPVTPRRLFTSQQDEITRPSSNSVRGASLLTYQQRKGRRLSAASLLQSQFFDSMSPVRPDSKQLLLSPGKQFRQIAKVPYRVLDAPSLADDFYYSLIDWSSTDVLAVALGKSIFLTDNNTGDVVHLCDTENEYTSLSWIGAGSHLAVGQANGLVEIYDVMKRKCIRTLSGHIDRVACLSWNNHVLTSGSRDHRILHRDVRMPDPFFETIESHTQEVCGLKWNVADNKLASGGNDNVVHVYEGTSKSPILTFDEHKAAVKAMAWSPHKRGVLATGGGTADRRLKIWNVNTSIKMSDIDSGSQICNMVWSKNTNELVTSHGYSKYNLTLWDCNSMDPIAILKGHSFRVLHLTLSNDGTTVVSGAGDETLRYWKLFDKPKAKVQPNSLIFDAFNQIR

B1: Hsl1^Halo KEN & D: Hsl1 fragment (amino acids 667–872) with C-terminal HaloTag, JF549-labeled (protein)
chain: QNSASKRSLYSLQSISKRSLNLNDLLVFDDPLPSKKPASENVNKSEPHSLESDSDFEILCDQILFGNALDRILEEEEDNEKERDTQRQRQNDTKSSADTFTISGVSTNKENEGPEYPTKIEKNQFNMSYKPSENMSGLSSFPIFEKENTLSSSYLEEQKPKRAALSDITNSFNKMNKQEGMRIEKKIQREQLQKKNDRPSPLKPIQ
modifications: JF549 or JF646 dye covalently bound to the HaloTag; left off: HaloTag, C-terminal, kept | TAP, C-terminal, cleaved
notes: Hsl1 fragment (amino acids 667–872) with C-terminal HaloTag, JF549-labeled
For B1, which “Dwell Time” value (Cdh1^WD40; [1]) is on record?
Its value is 73.520 ± 3.075 s.

What about the “Dwell Time” value (Cdh1^WD40; [2]) of the same molecule?
The value was 56.447 ± 2.072 s.

And the mean dwell time (Cdh1^WD40)?
Its mean dwell time is 56.4 ± 2 s and 56.4 s.

What about the mean dwell time (Cdh1^WD40; listed as Hsl1 fragment) of the same molecule?
Its mean dwell time is 56.4 ± 2 s.

And the “fold increase in dwell time vs degron peptide alone” value (Cdh1^WD40; vs D (and KEN) box peptide)?
The value was 100 fold.

What about the “binding (in words)” value (APC/C^Apc10-4A, Cdh1) of the same molecule?
Its value is “This boost in affinity was not seen in the Apc10-4A mutant”.

What about the “Dwell Time” value (APC/C^Apc10-4A, Cdh1; [1]) of the same molecule?
Its value is 42.881 ± 2.489 s.

What about the “Dwell Time” value (APC/C^Apc10-4A, Cdh1; [2]) of the same molecule?
Its value is 75.919 ± 3.159 s.

What about the mean dwell time (APC/C^Apc10-4A, Cdh1; representative of two independent experiments, ± SE, ligand ≤1 nM, buffer C + BSA) of the same molecule?
The mean dwell time was 75.9 ± 3 s and 75.9 s.
